Laboratory results as given in US20220332804A1 (CSL INNOVATION, published 2022).

Experiments:
Test in all cases: SPR, KD relative to WT C2;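 further: biacore SPR at 37 °C, anti-C2 mAbs captured via immobilised goat anti-human IgG, C2 alanine or serine surface mutants as analytes, 1:1 model fitted, double-referenced sensograms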
human C2 K274A = target: T1, human C2 K274A (human, UniProt P06681 21-752)
T1 sequence: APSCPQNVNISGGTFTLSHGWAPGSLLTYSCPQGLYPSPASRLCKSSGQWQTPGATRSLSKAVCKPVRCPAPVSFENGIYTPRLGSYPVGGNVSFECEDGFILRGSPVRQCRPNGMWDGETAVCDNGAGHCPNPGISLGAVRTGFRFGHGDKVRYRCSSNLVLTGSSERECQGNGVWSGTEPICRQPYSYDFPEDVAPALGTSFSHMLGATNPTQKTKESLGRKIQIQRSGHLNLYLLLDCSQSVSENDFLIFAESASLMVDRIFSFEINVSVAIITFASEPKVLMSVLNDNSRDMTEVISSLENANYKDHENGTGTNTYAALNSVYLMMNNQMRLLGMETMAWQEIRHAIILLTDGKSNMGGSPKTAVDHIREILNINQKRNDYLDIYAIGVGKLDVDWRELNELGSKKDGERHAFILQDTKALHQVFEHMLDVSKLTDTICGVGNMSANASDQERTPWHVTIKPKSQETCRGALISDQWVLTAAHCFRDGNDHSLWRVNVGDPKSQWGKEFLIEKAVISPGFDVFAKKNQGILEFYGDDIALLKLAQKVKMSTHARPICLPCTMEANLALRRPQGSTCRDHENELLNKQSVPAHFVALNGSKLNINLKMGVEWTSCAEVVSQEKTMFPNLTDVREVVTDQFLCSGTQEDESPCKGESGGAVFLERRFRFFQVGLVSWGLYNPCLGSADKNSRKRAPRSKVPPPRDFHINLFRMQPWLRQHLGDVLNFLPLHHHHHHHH

human C2 D404A = target: T2, human C2 D404A (human, UniProt P06681 21-752)
T2 sequence: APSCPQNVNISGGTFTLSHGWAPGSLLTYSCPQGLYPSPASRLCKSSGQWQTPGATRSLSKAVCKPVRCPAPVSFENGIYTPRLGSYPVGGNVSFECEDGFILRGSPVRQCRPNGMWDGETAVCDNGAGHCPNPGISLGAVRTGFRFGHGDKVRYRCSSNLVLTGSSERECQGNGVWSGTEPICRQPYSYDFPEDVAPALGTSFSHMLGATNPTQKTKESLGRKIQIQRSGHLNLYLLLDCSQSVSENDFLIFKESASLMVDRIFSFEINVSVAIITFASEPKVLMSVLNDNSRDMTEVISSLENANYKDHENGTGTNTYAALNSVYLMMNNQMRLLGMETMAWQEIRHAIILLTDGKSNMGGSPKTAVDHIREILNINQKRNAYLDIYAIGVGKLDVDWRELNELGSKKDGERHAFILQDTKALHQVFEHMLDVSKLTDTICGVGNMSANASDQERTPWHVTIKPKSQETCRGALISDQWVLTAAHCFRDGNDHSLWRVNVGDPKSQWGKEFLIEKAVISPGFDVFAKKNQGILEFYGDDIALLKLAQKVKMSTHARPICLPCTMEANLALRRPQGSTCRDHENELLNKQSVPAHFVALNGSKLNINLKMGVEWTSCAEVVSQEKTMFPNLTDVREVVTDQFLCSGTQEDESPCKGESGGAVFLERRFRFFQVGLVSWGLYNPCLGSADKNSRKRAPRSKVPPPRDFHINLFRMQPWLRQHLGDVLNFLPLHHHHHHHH

human C2 K415A = target: T3, human C2 K415A (human, UniProt P06681 21-752)
T3 sequence: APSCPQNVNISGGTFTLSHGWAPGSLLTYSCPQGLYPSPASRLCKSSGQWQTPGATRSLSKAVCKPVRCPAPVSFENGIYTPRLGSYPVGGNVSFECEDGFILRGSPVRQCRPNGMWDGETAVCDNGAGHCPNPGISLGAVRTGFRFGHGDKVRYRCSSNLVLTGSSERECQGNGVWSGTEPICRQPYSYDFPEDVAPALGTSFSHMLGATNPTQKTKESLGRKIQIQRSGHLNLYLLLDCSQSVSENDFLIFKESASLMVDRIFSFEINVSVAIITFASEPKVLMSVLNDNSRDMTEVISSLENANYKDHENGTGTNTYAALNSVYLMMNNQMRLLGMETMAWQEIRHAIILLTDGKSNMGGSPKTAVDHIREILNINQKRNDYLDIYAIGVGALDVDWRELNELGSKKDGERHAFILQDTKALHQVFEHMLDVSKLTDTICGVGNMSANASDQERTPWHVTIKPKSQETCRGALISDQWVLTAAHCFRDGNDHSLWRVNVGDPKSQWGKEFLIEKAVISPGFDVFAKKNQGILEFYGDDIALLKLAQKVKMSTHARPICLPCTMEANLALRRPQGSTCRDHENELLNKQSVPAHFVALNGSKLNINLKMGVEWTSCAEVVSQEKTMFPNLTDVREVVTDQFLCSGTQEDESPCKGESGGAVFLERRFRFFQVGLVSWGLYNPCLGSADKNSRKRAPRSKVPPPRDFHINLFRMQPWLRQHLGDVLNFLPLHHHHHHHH

human C2 L271A = target: T4, human C2 L271A (human, UniProt P06681 21-752)
T4 sequence: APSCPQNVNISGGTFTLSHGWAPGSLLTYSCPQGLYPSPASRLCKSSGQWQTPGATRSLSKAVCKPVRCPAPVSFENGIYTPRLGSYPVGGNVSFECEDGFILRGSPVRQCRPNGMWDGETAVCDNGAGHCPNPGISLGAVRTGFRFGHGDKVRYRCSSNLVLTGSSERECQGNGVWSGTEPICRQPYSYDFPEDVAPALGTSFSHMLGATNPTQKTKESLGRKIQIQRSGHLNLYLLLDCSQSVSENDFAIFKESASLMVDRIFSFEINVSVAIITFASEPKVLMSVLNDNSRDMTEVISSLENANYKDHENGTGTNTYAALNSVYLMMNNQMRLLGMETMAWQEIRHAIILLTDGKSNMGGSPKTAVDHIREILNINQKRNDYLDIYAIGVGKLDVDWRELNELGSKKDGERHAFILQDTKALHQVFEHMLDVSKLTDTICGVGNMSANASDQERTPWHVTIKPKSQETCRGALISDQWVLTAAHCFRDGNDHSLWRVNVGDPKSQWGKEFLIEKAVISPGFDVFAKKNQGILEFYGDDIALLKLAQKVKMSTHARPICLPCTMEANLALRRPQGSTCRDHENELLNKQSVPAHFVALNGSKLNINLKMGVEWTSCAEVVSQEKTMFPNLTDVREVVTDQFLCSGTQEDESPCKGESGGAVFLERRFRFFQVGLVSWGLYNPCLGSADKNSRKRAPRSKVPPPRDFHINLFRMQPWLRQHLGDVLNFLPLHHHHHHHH

B1: RF16-226 (antibody, human IgG4 S228P, lambda)
heavy: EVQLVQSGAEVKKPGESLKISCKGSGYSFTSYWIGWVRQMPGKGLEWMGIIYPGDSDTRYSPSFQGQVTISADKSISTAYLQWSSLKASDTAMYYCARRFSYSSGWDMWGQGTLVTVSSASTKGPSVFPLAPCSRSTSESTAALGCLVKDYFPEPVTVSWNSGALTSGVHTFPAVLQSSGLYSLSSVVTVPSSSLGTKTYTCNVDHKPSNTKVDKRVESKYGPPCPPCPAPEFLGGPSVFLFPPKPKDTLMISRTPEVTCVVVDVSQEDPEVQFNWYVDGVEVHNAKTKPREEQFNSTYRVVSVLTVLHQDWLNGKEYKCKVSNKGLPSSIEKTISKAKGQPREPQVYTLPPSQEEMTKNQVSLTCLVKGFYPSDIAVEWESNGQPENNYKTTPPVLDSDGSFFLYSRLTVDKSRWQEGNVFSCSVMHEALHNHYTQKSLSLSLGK
light: SYELTQPPSVSVSPGQTARITCSGDALTSKYVAWYQQKSGLAPLLVIYEDTRRPSGIPAKFSGSSSGSVATLTISGAHGDDEADYYCYSTDASGHQRVFGGGTKLTVLSQPKAAPSVTLFPPSSEELQANKATLVCLISDFYPGAVTVAWKADGSPVKAGVETTKPSKQSNNKYAASSYLSLTPEQWKSHRSYSCQVTHEGSTVEKTVAPTECS
notes: pH-dependent anti-C2 antibody from a phage display library; also called WT
**Q.** Which results are given for B1?
**A.** Fold diff (human C2 K274A): 29 fold; Fold diff (human C2 D404A): 1 fold; Fold diff (human C2 K415A): 1 fold; Fold diff (human C2 L271A): 1 fold
